Test results reported in US20250002921A1, “SPHERICAL NUCLEIC ACIDS FOR cGAS-STING AND STAT3 PATHWAY MODULATION FOR THE IMMUNOTHERAPEUTIC TREATMENT OF CANCER” (NORTHWESTER UNIVERSITY, priority 2021, published 2025).

Test system: IRF
Experiment: IRF reporter assay in isogenic cGAS-, STING- and IRF-deficient macrophages
Type: cell-based
Conditions: IRF-deficient macrophages, FIG. 2D
Source text: (A) ICP-MS to quantify cellular level of gold in cells treated with ISD45-SNAs. (B-D) Luciferase reporter assay to quantify IRF induction in RAW-Lucia™ macrophages (B), THP cells (C), and in WT, cGAS-, STING- and IRF-deficient RAW-Lucia™ macrophages. TFX, transfection agent. Median+/−standard deviation is shown. *p<0.05. (E) Multiplex ELISA-based and (F) antibody array-based cytokine profiling in RAW-Lucia™ macrophages.
To exploit the SNA architecture for cGAS activation, we synthesized ISD45-SNAs by conjugating 13 nm gold nanoparticles with 45 base pair (bp) dsISD oligonucleotides (ISD^45-SNAs; FIG. 1A), as 45 bp ISD oligonucleotides represent the most used and widely characterized cGAS activator^7. The terms “dsISD^45” and “ISD^45” are interchangeable as used herein. Citrate-stabilized gold nanoparticles were prepared using the Frens method^4,8,9. […] In addition, by generating melting curves, using an OliGreen fluorescence assay, and determining the zeta potential, oligonucleotide incorporation was quantified^4,8,9. […] Upon cGAS enzyme deactivation, the mixture was added to cGAS-deficient RAW-Lucia™ macrophages, carrying stable integration of an IRF-inducible Lucia luciferase reporter to quantify IRF induction luminometrically. […]

B1: ISD-45: free 45 bp interferon-stimulatory dsDNA oligonucleotide, the most used and widely characterized cGAS activator (nucleic acid)
sense: TACAGATCTACTAGTGATCTATGACTGATCTGTACATGATCTACA
antisense: ACATCTAGTACATGTCTAGTCAGTATCTAGTGATCATCAGACA
modifications: DNA, backbone and methylation of C not given here
For B1, the “IRF induction in the absence of STING, cGAS or IRF” value was “blunted”.
